This note sets out measurements from patent US20170101454A1 (Novo Nordisk, published 2017).

Assay [1] deals with T1, human glucagon receptor (human, UniProt P47871 26-477). Description: cell-based or functional assay.
Assay [2] concerns the target T2, human GLP-1 receptor (human, UniProt P43220 24-463). Description: cell-based or functional assay.
In assay [3] the target is T2, human GLP-1 receptor. The assay can be described thus: displacement of [125I]-GLP-1-(7-36)NH2 from BHK membranes with human GLP-1R, SPA, no serum albumin.
In assay [4] the target is T1, human glucagon receptor. Description: displacement of [125I]-glucagon from BHK membranes with human glucagon receptor, SPA, no serum albumin.

Starred links: 1 amine or outer side, 2 acyl side, 3 side chain; linkers in the order of their positions; H or OH if unused. Non-standard residues stand in square brackets, D forms with d. Groups on a side chain read outwards from the residue. No end group written: not given here. *: point of attachment. C18 diacid = O=C(O)CCCCCCCCCCCCCCCCC(=O)*; γGlu = O=C(O)[C@H](CCC(=O)[*:2])N[*:1]; Ac4c = NC1(C(=O)O)CCC1; AEEA = NCCOCCOCC(=O)O; Aib = CC(C)(N)C(=O)O

By IC50 is commonly meant the concentration needed to halve the response being measured.

T1 sequence (P47871 26-477): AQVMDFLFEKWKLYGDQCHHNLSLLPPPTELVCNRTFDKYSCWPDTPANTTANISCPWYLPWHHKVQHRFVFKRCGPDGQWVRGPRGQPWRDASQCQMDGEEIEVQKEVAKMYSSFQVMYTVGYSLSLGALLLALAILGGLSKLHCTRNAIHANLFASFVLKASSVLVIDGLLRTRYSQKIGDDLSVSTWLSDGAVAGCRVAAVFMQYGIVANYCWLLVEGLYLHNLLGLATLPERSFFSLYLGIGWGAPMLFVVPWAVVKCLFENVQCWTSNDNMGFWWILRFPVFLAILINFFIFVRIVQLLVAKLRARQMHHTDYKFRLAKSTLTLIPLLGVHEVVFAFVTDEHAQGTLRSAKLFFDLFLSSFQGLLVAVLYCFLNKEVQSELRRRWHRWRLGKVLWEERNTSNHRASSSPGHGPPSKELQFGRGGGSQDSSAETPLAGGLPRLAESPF

B1: N^ε28-[2-[2-[2-[[2-[2-[2-[[(4S)-4-carboxy-4-[[(4S)-4-carboxy-4-[[(4S)-4-carboxy-4-(17-carboxyheptadecanoylamino)butanoyl]amino]butanoyl]amino]butanoyl]amino]eth … (peptide)
peptide: H[Aib]QGTFTSDLSKYLDARRARDFVQWLIK([AEEA-AEEA-γGlu-γGlu-γGlu-C18 diacid])T-NH2
modifications: N-terminus assumed
SMILES: CC[C@H](C)[C@H](NC(=O)[C@H](CC(C)C)NC(=O)[C@H](Cc1c[nH]c2ccccc12)NC(=O)[C@H](CCC(N)=O)NC(=O)[C@@H](NC(=O)[C@H](Cc1ccccc1)NC(=O)[C@H](CC(=O)O)NC(=O)[C@H](CCCNC(=N)N)NC(=O)[C@H](C)NC(=O)[C@H](CCCNC(=N)N)NC(=O)[C@H](CCCNC(=N)N)NC(=O)[C@H](C)NC(=O)[C@H](CC(=O)O)NC(=O)[C@H](CC(C)C)NC(=O)[C@H](Cc1ccc(O)cc1)NC(=O)[C@H](CCCCN)NC(=O)[C@H](CO)NC(=O)[C@H](CC(C)C)NC(=O)[C@H](CC(=O)O)NC(=O)[C@H](CO)NC(=O)[C@@H](NC(=O)[C@H](Cc1ccccc1)NC(=O)[C@@H](NC(=O)CNC(=O)[C@H](CCC(N)=O)NC(=O)C(C)(C)NC(=O)[C@@H](N)Cc1c[nH]cn1)[C@@H](C)O)[C@@H](C)O)C(C)C)C(=O)N[C@@H](CCCCNC(=O)COCCOCCNC(=O)COCCOCCNC(=O)CC[C@H](NC(=O)CC[C@H](NC(=O)CC[C@H](NC(=O)CCCCCCCCCCCCCCCCC(=O)O)C(=O)O)C(=O)O)C(=O)O)C(=O)N[C@H](C(N)=O)[C@@H](C)O
notes: also called Chem. 5; Chem 5
Regarding B1, the “GlucagonR EC50 (pM), [Assay (I)(b)], CRE luciferase reporter, BHK cells” value (“GlucagonR EC50 (pM), [Assay (I)(b)]” for short) with human glucagon receptor [1] is 29 pM. For the same molecule, in the assay with human GLP-1 receptor [2], the “GLP-1R EC50 (pM) [Assay (I)(a)], CRE luciferase reporter, BHK cells” value (“GLP-1R EC50 (pM) [Assay (I)(a)]” below) turned out to be 5.5 pM. Also, the IC50 in the assay with human GLP-1 receptor [3] amounted to 0.1 nM; in the assay with human glucagon receptor [4], 6.7 nM.

B2: N^ε24-[2-[2-[2-[[2-[2-[2-[[(4S)-4-carboxy-4-[[(4S)-4-carboxy-4-[[(4S)-4-carboxy-4-(17-carboxyheptadecanoylamino)butanoyl]amino]butanoyl]amino]butanoyl]amino]eth … (peptide)
peptide: H[Aib]QGTFTSDYSKYLESRRARDFVK([AEEA-AEEA-γGlu-γGlu-γGlu-C18 diacid])WLIST-NH2
modifications: N-terminus assumed
SMILES: CC[C@H](C)[C@H](NC(=O)[C@H](CC(C)C)NC(=O)[C@H](Cc1c[nH]c2ccccc12)NC(=O)[C@H](CCCCNC(=O)COCCOCCNC(=O)COCCOCCNC(=O)CC[C@H](NC(=O)CC[C@H](NC(=O)CC[C@H](NC(=O)CCCCCCCCCCCCCCCCC(=O)O)C(=O)O)C(=O)O)C(=O)O)NC(=O)[C@@H](NC(=O)[C@H](Cc1ccccc1)NC(=O)[C@H](CC(=O)O)NC(=O)[C@H](CCCNC(=N)N)NC(=O)[C@H](C)NC(=O)[C@H](CCCNC(=N)N)NC(=O)[C@H](CCCNC(=N)N)NC(=O)[C@H](CO)NC(=O)[C@H](CCC(=O)O)NC(=O)[C@H](CC(C)C)NC(=O)[C@H](Cc1ccc(O)cc1)NC(=O)[C@H](CCCCN)NC(=O)[C@H](CO)NC(=O)[C@H](Cc1ccc(O)cc1)NC(=O)[C@H](CC(=O)O)NC(=O)[C@H](CO)NC(=O)[C@@H](NC(=O)[C@H](Cc1ccccc1)NC(=O)[C@@H](NC(=O)CNC(=O)[C@H](CCC(N)=O)NC(=O)C(C)(C)NC(=O)[C@@H](N)Cc1c[nH]cn1)[C@@H](C)O)[C@@H](C)O)C(C)C)C(=O)N[C@@H](CO)C(=O)N[C@H](C(N)=O)[C@@H](C)O
notes: also called Chem. 11; Chem 11
With B2, the “GlucagonR EC50 (pM), [Assay (I)(b)]” value with human glucagon receptor [1] stood at 428 pM. Moreover, the “GLP-1R EC50 (pM) [Assay (I)(a)]” value with human GLP-1 receptor [2] is 8 pM. Further, the IC50 with human GLP-1 receptor [3] was found to be 0.5 nM; with human glucagon receptor [4], 52 nM.

B3: N^ε24-[2-[2-[2-[[2-[2-[2-[[(4S)-4-carboxy-4-[[(4S)-4-carboxy-4-[[(4S)-4-carboxy-4-(17-carboxyheptadecanoylamino)butanoyl]amino]butanoyl]amino]butanoyl]amino]eth … (peptide)
peptide: H[Aib]QGTFTSDYSKYLDARRARDFVK([AEEA-AEEA-γGlu-γGlu-γGlu-C18 diacid])WLIST-NH2
modifications: N-terminus assumed
SMILES: CC[C@H](C)[C@H](NC(=O)[C@H](CC(C)C)NC(=O)[C@H](Cc1c[nH]c2ccccc12)NC(=O)[C@H](CCCCNC(=O)COCCOCCNC(=O)COCCOCCNC(=O)CC[C@H](NC(=O)CC[C@H](NC(=O)CC[C@H](NC(=O)CCCCCCCCCCCCCCCCC(=O)O)C(=O)O)C(=O)O)C(=O)O)NC(=O)[C@@H](NC(=O)[C@H](Cc1ccccc1)NC(=O)[C@H](CC(=O)O)NC(=O)[C@H](CCCNC(=N)N)NC(=O)[C@H](C)NC(=O)[C@H](CCCNC(=N)N)NC(=O)[C@H](CCCNC(=N)N)NC(=O)[C@H](C)NC(=O)[C@H](CC(=O)O)NC(=O)[C@H](CC(C)C)NC(=O)[C@H](Cc1ccc(O)cc1)NC(=O)[C@H](CCCCN)NC(=O)[C@H](CO)NC(=O)[C@H](Cc1ccc(O)cc1)NC(=O)[C@H](CC(=O)O)NC(=O)[C@H](CO)NC(=O)[C@@H](NC(=O)[C@H](Cc1ccccc1)NC(=O)[C@@H](NC(=O)CNC(=O)[C@H](CCC(N)=O)NC(=O)C(C)(C)NC(=O)[C@@H](N)Cc1c[nH]cn1)[C@@H](C)O)[C@@H](C)O)C(C)C)C(=O)N[C@@H](CO)C(=O)N[C@H](C(N)=O)[C@@H](C)O
notes: also called Chem. 1; Chem 1
With B3, the “GlucagonR EC50 (pM), [Assay (I)(b)]” value in the assay with human glucagon receptor [1] worked out at 17.5 pM. Also, in the assay with human GLP-1 receptor [2], the “GLP-1R EC50 (pM) [Assay (I)(a)]” value stood at 3.5 pM. Besides, the IC50 amounted to 0.9 nM in the assay with human GLP-1 receptor [3] and 11.3 nM with human glucagon receptor [4].

B4: N^ε24-[2-[2-[2-[[2-[2-[2-[[(4S)-4-carboxy-4-[[(4S)-4-carboxy-4-[[(4S)-4-carboxy-4-(17-carboxyheptadecanoylamino)butanoyl]amino]butanoyl]amino]butanoyl]amino]eth … (peptide)
peptide: H[Aib]QGTFTSDYSKYLDLRRARDFVK([AEEA-AEEA-γGlu-γGlu-γGlu-C18 diacid])WLIST-NH2
modifications: N-terminus assumed
SMILES: CC[C@H](C)[C@H](NC(=O)[C@H](CC(C)C)NC(=O)[C@H](Cc1c[nH]c2ccccc12)NC(=O)[C@H](CCCCNC(=O)COCCOCCNC(=O)COCCOCCNC(=O)CC[C@H](NC(=O)CC[C@H](NC(=O)CC[C@H](NC(=O)CCCCCCCCCCCCCCCCC(=O)O)C(=O)O)C(=O)O)C(=O)O)NC(=O)[C@@H](NC(=O)[C@H](Cc1ccccc1)NC(=O)[C@H](CC(=O)O)NC(=O)[C@H](CCCNC(=N)N)NC(=O)[C@H](C)NC(=O)[C@H](CCCNC(=N)N)NC(=O)[C@H](CCCNC(=N)N)NC(=O)[C@H](CC(C)C)NC(=O)[C@H](CC(=O)O)NC(=O)[C@H](CC(C)C)NC(=O)[C@H](Cc1ccc(O)cc1)NC(=O)[C@H](CCCCN)NC(=O)[C@H](CO)NC(=O)[C@H](Cc1ccc(O)cc1)NC(=O)[C@H](CC(=O)O)NC(=O)[C@H](CO)NC(=O)[C@@H](NC(=O)[C@H](Cc1ccccc1)NC(=O)[C@@H](NC(=O)CNC(=O)[C@H](CCC(N)=O)NC(=O)C(C)(C)NC(=O)[C@@H](N)Cc1c[nH]cn1)[C@@H](C)O)[C@@H](C)O)C(C)C)C(=O)N[C@@H](CO)C(=O)N[C@H](C(N)=O)[C@@H](C)O
notes: also called Chem. 12; Chem 12
As to B4, in the assay with human glucagon receptor [1], the “GlucagonR EC50 (pM), [Assay (I)(b)]” value was determined as 108 pM. Also, the “GLP-1R EC50 (pM) [Assay (I)(a)]” value in the assay with human GLP-1 receptor [2] amounted to 29 pM. Further, the IC50 in the assay with human GLP-1 receptor [3] is 2.8 nM; with human glucagon receptor [4], 95.9 nM.

B5: N^ε24-[2-[2-[2-[[2-[2-[2-[[(4S)-4-carboxy-4-[[(4S)-4-carboxy-4-[[(4S)-4-carboxy-4-(17-carboxyheptadecanoylamino)butanoyl]amino]butanoyl]amino]butanoyl]amino]eth … (peptide)
peptide: H[Aib]QGTFTSDYSKYLDAKRAREFVK([AEEA-AEEA-γGlu-γGlu-γGlu-C18 diacid])WLIST-NH2
modifications: N-terminus assumed
SMILES: CC[C@H](C)[C@H](NC(=O)[C@H](CC(C)C)NC(=O)[C@H](Cc1c[nH]c2ccccc12)NC(=O)[C@H](CCCCNC(=O)COCCOCCNC(=O)COCCOCCNC(=O)CC[C@H](NC(=O)CC[C@H](NC(=O)CC[C@H](NC(=O)CCCCCCCCCCCCCCCCC(=O)O)C(=O)O)C(=O)O)C(=O)O)NC(=O)[C@@H](NC(=O)[C@H](Cc1ccccc1)NC(=O)[C@H](CCC(=O)O)NC(=O)[C@H](CCCNC(=N)N)NC(=O)[C@H](C)NC(=O)[C@H](CCCNC(=N)N)NC(=O)[C@H](CCCCN)NC(=O)[C@H](C)NC(=O)[C@H](CC(=O)O)NC(=O)[C@H](CC(C)C)NC(=O)[C@H](Cc1ccc(O)cc1)NC(=O)[C@H](CCCCN)NC(=O)[C@H](CO)NC(=O)[C@H](Cc1ccc(O)cc1)NC(=O)[C@H](CC(=O)O)NC(=O)[C@H](CO)NC(=O)[C@@H](NC(=O)[C@H](Cc1ccccc1)NC(=O)[C@@H](NC(=O)CNC(=O)[C@H](CCC(N)=O)NC(=O)C(C)(C)NC(=O)[C@@H](N)Cc1c[nH]cn1)[C@@H](C)O)[C@@H](C)O)C(C)C)C(=O)N[C@@H](CO)C(=O)N[C@H](C(N)=O)[C@@H](C)O
notes: also called Chem. 2; Chem 2
As for B5, the “GlucagonR EC50 (pM), [Assay (I)(b)]” value in the assay with human glucagon receptor [1] is 10 pM. The “GLP-1R EC50 (pM) [Assay (I)(a)]” value in the assay with human GLP-1 receptor [2] worked out at 2 pM. For the same molecule, the IC50 in the assay with human GLP-1 receptor [3] is 0.3 nM; in the assay with human glucagon receptor [4], 7.5 nM.

B6: N^ε28-[(4S)-4-carboxy-4-[[(4S)-4-carboxy-4-[[2-[2-[2-[[2-[2-[2-[[(4S)-4-carboxy-4-[[(4S)-4-carboxy-4-(17-carboxyheptadecanoylamino)butanoyl]amino]butanoyl]amino … (peptide)
peptide: H[Ac4c]QGTFTSDVSKYLESRRAREFVQWLIK([γGlu-γGlu-AEEA-AEEA-γGlu-γGlu-C18 diacid])T-NH2
modifications: N-terminus assumed
SMILES: CC[C@H](C)[C@H](NC(=O)[C@H](CC(C)C)NC(=O)[C@H](Cc1c[nH]c2ccccc12)NC(=O)[C@H](CCC(N)=O)NC(=O)[C@@H](NC(=O)[C@H](Cc1ccccc1)NC(=O)[C@H](CCC(=O)O)NC(=O)[C@H](CCCNC(=N)N)NC(=O)[C@H](C)NC(=O)[C@H](CCCNC(=N)N)NC(=O)[C@H](CCCNC(=N)N)NC(=O)[C@H](CO)NC(=O)[C@H](CCC(=O)O)NC(=O)[C@H](CC(C)C)NC(=O)[C@H](Cc1ccc(O)cc1)NC(=O)[C@H](CCCCN)NC(=O)[C@H](CO)NC(=O)[C@@H](NC(=O)[C@H](CC(=O)O)NC(=O)[C@H](CO)NC(=O)[C@@H](NC(=O)[C@H](Cc1ccccc1)NC(=O)[C@@H](NC(=O)CNC(=O)[C@H](CCC(N)=O)NC(=O)C1(NC(=O)[C@@H](N)Cc2c[nH]cn2)CCC1)[C@@H](C)O)[C@@H](C)O)C(C)C)C(C)C)C(=O)N[C@@H](CCCCNC(=O)CC[C@H](NC(=O)CC[C@H](NC(=O)COCCOCCNC(=O)COCCOCCNC(=O)CC[C@H](NC(=O)CC[C@H](NC(=O)CCCCCCCCCCCCCCCCC(=O)O)C(=O)O)C(=O)O)C(=O)O)C(=O)O)C(=O)N[C@H](C(N)=O)[C@@H](C)O
notes: also called Chem. 19; Chem 19
B6: the “GlucagonR EC50 (pM), [Assay (I)(b)]” value with human glucagon receptor [1] was 37 pM. Further, in the assay with human GLP-1 receptor [2], the “GLP-1R EC50 (pM) [Assay (I)(a)]” value was determined as 6 pM. In the assay with human glucagon receptor [4], the IC50 was 2.5 nM.
Turning to H[Aib]QGTFTSDLSKYLDARRARDFVQWLIK([γGlu-γGlu-γGlu-C18 diacid])T-NH2 (also called Chem. 15; Chem 15), the “GlucagonR EC50 (pM), [Assay (I)(b)]” value with human glucagon receptor [1] amounted to 7 pM. The “GLP-1R EC50 (pM) [Assay (I)(a)]” value with human GLP-1 receptor [2] turned out to be 4 pM. Further, the IC50 in the assay with human glucagon receptor [4] came out at 1.7 nM.
